Measurements: US11473073B2, “Aminopeptidases for protein hydrolyzates” (DUPONT NUTRITION BIOSCIENCES APS, priority 2015, dated 2022)

Assays:
[1] = system: peptide WHWLQLKPGQPMY (SEQ ID NO:26); settings: as described by Blinkovsky et al., Biochimica et Biophysica Acta 1480 (2000) 171-181; cited from earlier work
[2] = system: peptide WHWLQLKPGQPMY (SEQ ID NO:26); experiment: Hydrolysis of proline containing peptide, LC-MS; format: biochemical; settings: peptide 1 mg/mL, aminopeptidase 1 ug/mL, CPB-Buffer, 55° C.; FIG. 5-7
Experimental: The peptide […] (SEQ ID NO:26) was hydrolysed with TRI03 and TRI035. The peptide (1 mg/mL) was incubated with 1 ug/mL of the aminopeptidase in 20 mM CPB-Buffer (20 mM Citric acid, 20 mM Phosphate. 20 mM Boric acid) at 55° C. Aliquots (50 μL) were stopped with 50 rel 5% TFA at the indicated time points and subjected to LC-MS analysis.
Capillary LC-MS/MS analyses were performed using an Agilent 1100 LC system (Agilent Technologies) interfaced to a LTQ Orbitrap Classic hybrid mass spectrometer (Thermo Scientific, Bremen, Germany). Samples were loaded onto a 15 cm Phenomenix Jupiter 4μ Proteo 90A, C4 analytical column. Separation was performed at a flow rate of 16 μL/min using a 10 min gradient of 0-40% Solvent B H2O/CH3CN/HCOOH (50/950/0.65 v/v/v) into the IONMAX® ion source (Thermo Scientific, San Jose). The LTQ Orbitrap Classic instrument was operated in a data-dependent MS/MS mode. The peptide masses were measured by the Orbitrap (MS scans were obtained with a resolution of 60 000 at m/z 400), and up to 2 of the most intense peptide m/z were selected and subjected to fragmentation using CID in the linear ion trap (LTQ). Dynamic exclusion was enabled with a list size of 500 masses, duration of 40 s, and an exclusion mass width of ±10 ppm relative to masses on the list.
The RAW files were accessed with the program Skyline 2.6.0.7176 (MacLean, B., et al., “Skyline: an open source document editor for creating and analyzing targeted proteomics experiments”, Bioinformatics, 2010, 26(7): p. 966-8) which uses the MS1 intensities to build chromatograms (Schilling, B., et al., “Platform-independent and label-free quantitation of proteomic data using MS1 extracted ion chromatograms in skyline: application to protein acetylation and phosphorylation”, Mol Cell Proteomics, 2012. 11(5): p. 202-14). The precursor isotopic import filter was set to a count of three, (M, M+1, and M+2) at a resolution of 60,000 and the most intense charge state was used. Peptide sequences of the substrate as well as cleavage products were typed into Skyline and intensities were calculated in each sample. […]

B1: Aspergillus oryzae PepN 2: Aspergillus oryzae PepN 2 described by A. M. Blinkovsky et al., Biochimica et Biophysica Acta 1480 (2000) 171-181 (protein)
chain: RALVSPDEFPEDIQLEDLLEGSQQLEDFAYAYPERNRVFGGKAHDDTVNYLYEELKKTGYYDVYKQPQVHLWSNADQTLKVGDEEIEAKTMTYSPSVEVTADVAVVKNLGCSEADYPSDVEGKVALIKRGECPFGDKSVLAAKAKAAASIVYNNVAGSMAGTLGAAQSDKGPYSAIVGISLEDGQKLIKLAEAGSVSVDLWVDSKQENRTTYNVVAQTKGGDPNNVVALGGHTDSVEAGPGINDDGSGIISNLVIAKALTQYSVKNAVRFLFWTAEEFGLLGSNYYVSHLNATELNKIRLYLNFDMIASPNYALMIYDGDGSAFNQSGPAGSAQIEKLFEDYYDSIDLPHIPTQFDGRSDYEAFILNGIPSGGLFTGAEGIMSEENASRWGGQAGVAYDANYHAAGDNMTNLNHEAFLINSKATAFAVATYANDLSSIPKRNTTSSLHRRARTMRPFGKRAPKTHAHVSGSGCWHSQVEA
hydrolysis of X-Pro bonds including those of WHWLQLKPGQPMY [1]: does not hydrolyze
hydrolysis of WHWLQLKPGQPMY to KPGQPMY and further down to QPMY [2]: cleaves the peptide down to QPMY
